Source: patent US20240059785A1 (QILU PUGET SOUND BIOTHERAPEUTICS, published 2024)

Experiments:
[1] = biological target: T1, human CD37 (Homo sapiens CD37) (Homo sapiens, UniProt P11049 1-281); assay: FACS on CHO cells stably expressing hCD37 (CD37/CHO)
T1 construct: Multi-pass cell surface antigen; present on Raji, Ramos, WSU-DLCL2 cells, human B cells, or on stably transfected CHO cells (CD37/CHO); also called hCD37
T1 sequence: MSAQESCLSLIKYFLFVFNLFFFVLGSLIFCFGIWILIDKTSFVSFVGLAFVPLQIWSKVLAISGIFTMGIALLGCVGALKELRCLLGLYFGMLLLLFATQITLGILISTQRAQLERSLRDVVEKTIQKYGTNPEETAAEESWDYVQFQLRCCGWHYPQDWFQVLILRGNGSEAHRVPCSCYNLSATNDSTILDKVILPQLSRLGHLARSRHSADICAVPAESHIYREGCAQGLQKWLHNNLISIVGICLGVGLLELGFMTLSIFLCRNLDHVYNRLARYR
Procedure: (§1) The tubes were incubated with shaking for one hour at RT, washed once with 3 mL of FACS buffer, and resuspended in 100 μl of FACS blocking buffer containing 5 μg/mL of the various anti-CD20 antibodies to be tested. The cells were incubated together with the antibodies for 30 minutes at room temperature. […] The tubes were shaken at RT for 30 minutes at 200 rpm and then washed twice in FACS buffer. The cells were then fixed in 2% formaldehyde in phosphate buffered saline (PBS) containing 2% fetal bovine serum (FBS) and subjected to FACS analysis in a FACSCalibur™ benchtop analyzer (BD Biosciences).
CHO cells were transfected hCD20 and, independently, with hCD37. Two cell lines, one stably expressing hCD20 (CD20/CHO) and the other stably expressing hCD37 (CD37/CH0), were derived from these transfectants. […] The cell lines used were CD20/CHO and CD37/CHO as explained above, rather than Raji cells. Cells were centrifuged for 5 minutes at 1500 rpm for washing, rather than 3 minutes at 1500 rpm.

[2] = biological target: T2, human CD20 (Homo sapiens CD20) (Homo sapiens, UniProt P11836 1-297); assay: FACS on CHO cells stably expressing hCD20 (CD20/CHO), EC50 of Geo MFI
T2 construct: Multi-pass cell surface antigen; present on Raji, Ramos, WSU-DLCL2 cells, human CD19+ B cells, or on stably transfected CHO cells (CD20/CHO); also called hCD20
T2 sequence: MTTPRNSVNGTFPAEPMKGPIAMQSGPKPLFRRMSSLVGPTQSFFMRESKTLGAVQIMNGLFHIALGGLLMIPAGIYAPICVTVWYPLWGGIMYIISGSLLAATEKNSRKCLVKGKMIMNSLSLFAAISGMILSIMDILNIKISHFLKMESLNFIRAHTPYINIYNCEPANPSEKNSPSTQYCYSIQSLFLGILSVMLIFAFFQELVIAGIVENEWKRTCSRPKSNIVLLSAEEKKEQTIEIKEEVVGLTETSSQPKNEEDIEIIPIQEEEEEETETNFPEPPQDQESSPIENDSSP
Procedure: as §1
CHO cells were transfected hCD20 and, independently, with hCD37. Two cell lines, one stably expressing hCD20 (CD20/CHO) and the other stably expressing hCD37 (CD37/CH0), were derived from these transfectants. […] The cell lines used were CD20/CHO and CD37/CHO as explained above, rather than Raji cells. Cells were centrifuged for 5 minutes at 1500 rpm for washing, rather than 3 minutes at 1500 rpm. After washing, the cells and primary antibodies were incubated together in a volume of 50 μL rather than 100 μL. Primary antibodies were added at various concentrations to create a dose/response curve, rather than all antibodies being at a concentration of 5 μg/mL.

B1: anti-hCD20 Ab1.2.2.1 (antibody, human IgG4 S228P, kappa)
heavy: QVQLVQSGAEVKKPGSSVKVSCKASGYTFTSYNMHWVRQAPGQGLEWMGAIYPGNGDTSYNQKFQGRVTLTVDKSSSTAYMELSSLRSEDTAVYFCARVVYYSNSYWYFDVWGTGTMVTVSSASTKGPSVFPLAPCSRSTSESTAALGCLVKDYFPEPVTVSWNSGALTSGVHTFPAVLQSSGLYSLSSVVTVPSSSLGTKTYTCNVDHKPSNTKVDKRVESKYGPPCPPCPAPELLGGPDVFLFPPKPKDTLMISRTPEVTCVVVDVSHEDPEVKFNWYVDGVEVHNAKTKPREEQYNATYRVVSVLTVLHQDWLNGKEYKCKVSNKALPAPIEKTISKAKGQPREPQVYTLPPSREEMTKNQVSLTCLVKGFYPSDIAVEWESNGQPENNYKTTPPVLRSDGSFFLYSELTVDKSRWQQGNVFSCSVMHEALHNHYTQKSLSLSPGK
light: EIVLTQSPDFQSVTPKEKVTITCRASSSVSYMHWYQQKPDQSPKPLIYAPSNLASGVPSRFSGSGSGTDYTLTINSLEAEDAATYYCQQWSFNPPTFGAGTKLEIKRTVAAPSVFIFPPSDEQLKSGTASVVCLLNNFYPREAKVQWKVDNALQSGNSQESVTEQDSKDSTYSLSSTLTLSKADYEKHKVYACEVTHQGLSSPVTKSFNRGEC
notes: Ab1.2.2 with D399R and K409E in the CH3; also called α-CD20 Ab1.2.2.1
binding result [1]: no binding (tested: about 0.0002 nM to about 30 nM)
EC50 [2]: 5.02 nM
